Measurements taken from patent US20100272723A1 (Xencor, published 2010).
Numbering of substitutions follows the chain as printed. Names and notes keep the numbering of the source.

T1: human CD19 (human, UniProt P15391 20-556)
T1 construct: also called B-cell surface antigen B4; B-cell antigen CD19
T1 sequence: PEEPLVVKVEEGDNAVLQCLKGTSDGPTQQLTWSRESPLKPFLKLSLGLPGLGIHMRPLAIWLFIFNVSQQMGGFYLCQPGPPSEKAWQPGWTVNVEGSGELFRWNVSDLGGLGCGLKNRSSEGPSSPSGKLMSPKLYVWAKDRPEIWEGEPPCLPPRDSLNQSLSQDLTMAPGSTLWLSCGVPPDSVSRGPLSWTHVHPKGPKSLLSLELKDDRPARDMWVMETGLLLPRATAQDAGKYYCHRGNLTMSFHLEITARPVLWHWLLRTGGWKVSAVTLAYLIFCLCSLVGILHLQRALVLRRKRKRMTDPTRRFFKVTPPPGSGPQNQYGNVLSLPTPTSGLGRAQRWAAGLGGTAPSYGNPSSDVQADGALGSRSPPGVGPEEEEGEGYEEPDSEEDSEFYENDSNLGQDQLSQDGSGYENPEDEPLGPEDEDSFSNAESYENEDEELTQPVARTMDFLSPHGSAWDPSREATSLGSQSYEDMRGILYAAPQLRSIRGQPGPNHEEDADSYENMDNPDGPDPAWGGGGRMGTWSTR

B1: H1.52 / L1 (antibody, V domains shown)
VH: EVQLVESGGGLVKPGGSLKLSCAASGYTFTSYVMHWVRQAPGKGLEWIGYINPYNDGTKYNEKFQGRVTISSDKSISTAYMELSSLRSEDTAMYYCARGTYYYGTRVFDYWGQGTLVTVSS
VL: DIVMTQSPATLSLSPGERATLSCRSSKSLLNSNGNTYLYWFQQKPGQSPQLLIYRMSNLASGVPDRFSGSGSGTEFTLTISSLEPEDFAVYYCMQHLEYPFTFGAGTKLEIK
notes: vs H1L1 (Kabat): VH S100cT; also called 4G7 H1.52_L1
B2: H1.52 / L1.145 (antibody, V domains shown)
VH: B1 VH
VL: B1 VL with L30Q, F101I
notes: vs H1L1 (Kabat): VH S100cT; VL L27cQ/F96I; also called 4G7 H1.52_L1.145
B3: H1.192 / L1.141 (antibody, V domains shown)
VH: B1 VH with T58P
VL: B1 VL with A60N, F101N
notes: vs H1L1 (Kabat): VH T57P/S100cT; VL A55N/F96N; also called 4G7 H1.192_L1.141
B4: H1.192 / L1.148 (antibody, V domains shown)
VH: B1 VH with T58P
VL: B1 VL with L30Q, A60N, F101N
notes: vs H1L1 (Kabat): VH T57P/S100cT; VL L27cQ/A55N/F96N; also called 4G7 H1.192_L1.148
B5: H1 / L1.124 (antibody, V domains shown)
VH: B1 VH with T105S
VL: B1 VL with L59W
notes: vs H1L1 (Kabat): VL L54W; also called 4G7 H1_L1.124
B6: H1.191 / L1.160 (antibody, V domains shown)
VH: B1 VH with K59E
VL: B1 VL with L30Q, S32V, G34A, A60N, F101I
notes: vs H1L1 (Kabat): VH K58E/S100cT; VL L27cQ/S27eV/G29A/A55N/F96I; also called 4G7 H1.191_L1.160
B7: H1.146 / L1 (antibody, V domains shown)
VH: B1 VH with T105S, D109H
VL: B1 VL
notes: vs H1L1 (Kabat): VH D101H; also called 4G7 H1.146_L1
B8: H1.52 / L1.138 (antibody, V domains shown)
VH: B1 VH
VL: B1 VL with S32V, A60N
notes: vs H1L1 (Kabat): VH S100cT; VL S27eV/A55N; also called 4G7 H1.52_L1.138
B9: H1.147 / L1 (antibody, V domains shown)
VH: B1 VH with T105S, D109S
VL: B1 VL
notes: vs H1L1 (Kabat): VH D101S; also called 4G7 H1.147_L1
B10: H1.199 / L1.146 (antibody, V domains shown)
VH: B1 VH with T58P, K59E
VL: B1 VL with S32V, A60N, F101N
notes: vs H1L1 (Kabat): VH T57P/K58E/S100cT; VL S27eV/A55N/F96N; also called 4G7 H1.199_L1.146
B11: H1.196 / L1.154 (antibody, V domains shown)
VH: B1 VH with T58P, R106S
VL: B1 VL with L30Q, S32V, A60N, F101N
notes: vs H1L1 (Kabat): VH T57P/S100cT/R100dS; VL L27cQ/S27eV/A55N/F96N; also called 4G7 H1.196_L1.154
B12: H1.65 / L1 (antibody, V domains shown)
VH: B1 VH with T105S, R106S
VL: B1 VL
notes: vs H1L1 (Kabat): VH R100dS; also called 4G7 H1.65_L1
B13: H1.199 / L1.148 (antibody, V domains shown)
VH: B1 VH with T58P, K59E
VL: B1 VL with L30Q, A60N, F101N
notes: vs H1L1 (Kabat): VH T57P/K58E/S100cT; VL L27cQ/A55N/F96N; also called 4G7 H1.199_L1.148
B14: H1.199 / L1.141 (antibody, V domains shown)
VH: B1 VH with T58P, K59E
VL: B1 VL with A60N, F101N
notes: vs H1L1 (Kabat): VH T57P/K58E/S100cT; VL A55N/F96N; also called 4G7 H1.199_L1.141
B15: H1.199 / L1.139 (antibody, V domains shown)
VH: B1 VH with T58P, K59E
VL: B1 VL with S32V, F101N
notes: vs H1L1 (Kabat): VH T57P/K58E/S100cT; VL S27eV/F96N; also called 4G7 H1.199_L1.139
B16: H1.199 / L1.152 (antibody, V domains shown)
VH: B1 VH with T58P, K59E
VL: B1 VL with L30Q, S32V, F101N
notes: vs H1L1 (Kabat): VH T57P/K58E/S100cT; VL L27cQ/S27eV/F96N; also called 4G7 H1.199_L1.152
B17: H1 / L1.11 (antibody, V domains shown)
VH: B1 VH with T105S
VL: B1 VL with E98N
notes: vs H1L1 (Kabat): VL E93N; also called 4G7 H1_L1.11
B18: H1.192 / L1.154 (antibody, V domains shown)
VH: B1 VH with T58P
VL: B1 VL with L30Q, S32V, A60N, F101N
notes: vs H1L1 (Kabat): VH T57P/S100cT; VL L27cQ/S27eV/A55N/F96N; also called 4G7 H1.192_L1.154
B19: H1.52 / L1.143 (antibody, V domains shown)
VH: B1 VH
VL: B1 VL with L30Q, A60N
notes: vs H1L1 (Kabat): VH S100cT; VL L27cQ/A55N; also called 4G7 H1.52_L1.143
B20: H1.192 / L1.146 (antibody, V domains shown)
VH: B1 VH with T58P
VL: B1 VL with S32V, A60N, F101N
notes: vs H1L1 (Kabat): VH T57P/S100cT; VL S27eV/A55N/F96N; also called 4G7 H1.192_L1.146
B21: H1.191 / L1.155 (antibody, V domains shown)
VH: B1 VH with K59E
VL: B1 VL with L30Q, S32V, A60N, F101I
notes: vs H1L1 (Kabat): VH K58E/S100cT; VL L27cQ/S27eV/A55N/F96I; also called 4G7 H1.191_L1.155
B22: H1.60 / L1 (antibody, V domains shown)
VH: B1 VH with T105L
VL: B1 VL
notes: vs H1L1 (Kabat): VH S100cL; also called 4G7 H1.60_L1
B23: H1.113 / L1 (antibody, V domains shown)
VH: B1 VH with T58H, T105S
VL: B1 VL
notes: vs H1L1 (Kabat): VH T57H; also called 4G7 H1.113_L1
B24: H1.201 / L1.155 (antibody, V domains shown)
VH: B1 VH with D56S
VL: B1 VL with L30Q, S32V, A60N, F101I
notes: vs H1L1 (Kabat): VH D55S/S100cT; VL L27cQ/S27eV/A55N/F96I; also called 4G7 H1.201_L1.155
B25: H1.62 / L1 (antibody, V domains shown)
VH: B1 VH with T105S, R106E
VL: B1 VL
notes: vs H1L1 (Kabat): VH R100dE; also called 4G7 H1.62_L1
B26: H1.191 / L1.161 (antibody, V domains shown)
VH: B1 VH with K59E
VL: B1 VL with L30Q, S32V, G34S, A60N, F101I
notes: vs H1L1 (Kabat): VH K58E/S100cT; VL L27cQ/S27eV/G29S/A55N/F96I; also called 4G7 H1.191_L1.161
B27: H1.192 / L1.144 (antibody, V domains shown)
VH: B1 VH with T58P
VL: B1 VL with L30Q, F101N
notes: vs H1L1 (Kabat): VH T57P/S100cT; VL L27cQ/F96N; also called 4G7 H1.192_L1.144
B28: H1.52 / L1.160 (antibody, V domains shown)
VH: B1 VH
VL: B1 VL with L30Q, S32V, G34A, A60N, F101I
notes: vs H1L1 (Kabat): VH S100cT; VL L27cQ/S27eV/G29A/A55N/F96I; also called 4G7 H1.52_L1.160
B29: H1.78 / L1 (antibody, V domains shown)
VH: B1 VH with D56A, T105S
VL: B1 VL
notes: vs H1L1 (Kabat): VH D55A; also called 4G7 H1.78_L1
B30: H1.52 / L1.139 (antibody, V domains shown)
VH: B1 VH
VL: B1 VL with S32V, F101N
notes: vs H1L1 (Kabat): VH S100cT; VL S27eV/F96N; also called 4G7 H1.52_L1.139
B31: H1.196 / L1.152 (antibody, V domains shown)
VH: B1 VH with T58P, R106S
VL: B1 VL with L30Q, S32V, F101N
notes: vs H1L1 (Kabat): VH T57P/S100cT/R100dS; VL L27cQ/S27eV/F96N; also called 4G7 H1.196_L1.152
B32: H1.201 / L1.160 (antibody, V domains shown)
VH: B1 VH with D56S
VL: B1 VL with L30Q, S32V, G34A, A60N, F101I
notes: vs H1L1 (Kabat): VH D55S/S100cT; VL L27cQ/S27eV/G29A/A55N/F96I; also called 4G7 H1.201_L1.160
B33: H1.144 / L1 (antibody, V domains shown)
VH: B1 VH with T105S, D109N
VL: B1 VL
notes: vs H1L1 (Kabat): VH D101N; also called 4G7 H1.144_L1
B34: H1.196 / L1 (antibody, V domains shown)
VH: B1 VH with T58P, R106S
VL: B1 VL
notes: vs H1L1 (Kabat): VH T57P/S100cT/R100dS; also called 4G7 H1.196_L1
B35: H1.196 / L1.146 (antibody, V domains shown)
VH: B1 VH with T58P, R106S
VL: B1 VL with S32V, A60N, F101N
notes: vs H1L1 (Kabat): VH T57P/S100cT/R100dS; VL S27eV/A55N/F96N; also called 4G7 H1.196_L1.146
B36: H1.109 / L1 (antibody, V domains shown)
VH: B1 VH with T58P, T105S
VL: B1 VL
notes: vs H1L1 (Kabat): VH T57P; also called 4G7 H1.109_L1
B37: H1.52 / L1.155 (antibody, V domains shown)
VH: B1 VH
VL: B1 VL with L30Q, S32V, A60N, F101I
notes: vs H1L1 (Kabat): VH S100cT; VL L27cQ/S27eV/A55N/F96I; also called 4G7 H1.52_L1.155
B38: H1.192 / L1.152 (antibody, V domains shown)
VH: B1 VH with T58P
VL: B1 VL with L30Q, S32V, F101N
notes: vs H1L1 (Kabat): VH T57P/S100cT; VL L27cQ/S27eV/F96N; also called 4G7 H1.192_L1.152
B39: H1.52 / L1.149 (antibody, V domains shown)
VH: B1 VH
VL: B1 VL with L30Q, A60N, F101I
notes: vs H1L1 (Kabat): VH S100cT; VL L27cQ/A55N/F96I; also called 4G7 H1.52_L1.149
B40: H1.191 / L1.149 (antibody, V domains shown)
VH: B1 VH with K59E
VL: B1 VL with L30Q, A60N, F101I
notes: vs H1L1 (Kabat): VH K58E/S100cT; VL L27cQ/A55N/F96I; also called 4G7 H1.191_L1.149

molecular target: T1, human CD19; assay: binding affinity relative to the parent H1L1 mAb (Example 5); assay and format not named on the sheet

| Binder | Fold change binding [fold] |
| --- | --- |
| B1 | 3.22 |
| B2 | 6.41 |
| B3 | 2.57 |
| B4 | 4.63 |
| B5 | 1.47 |
| B6 | 2.91 |
| B7 | 2.45 |
| B8 | 3.93 |
| B9 | 2.65 |
| B10 | 4.11 |
| B11 | 4.44 |
| B12 | 1.41 |
| B13 | 4.34 |
| B14 | 4.02 |
| B15 | 2.36 |
| B16 | 3.55 |
| B17 | 1.59 |
| B18 | 5.12 |
| B19 | 3.83 |
| B20 | 3.19 |

| Binder | Fold change binding [fold] |
| --- | --- |
| B21 | 4.56 |
| B22 | 1.56 |
| B23 | 1.29 |
| B24 | 4.48 |
| B25 | 1.65 |
| B26 | 3.97 |
| B27 | 3.63 |
| B28 | 4.18 |
| B29 | 1.14 |
| B30 | 1.8 |
| B31 | 4.36 |
| B32 | 4.51 |
| B33 | 2.26 |
| B34 | 3.42 |
| B35 | 3.57 |
| B36 | 1.52 |
| B37 | 6.16 |
| B38 | 2.98 |
| B39 | 8.6 |
| B40 | 6.02 |
